Data as given in the Human Domainome abundance scans (Beltran et al. 2025).
± gives the uncertainty stated by the source.

B1: Homeobox protein cut-like 1, residues 941 to 1008; numbered along this chain, P39880 (parent)
chain: QEVDTIELTRQVKEKLAKNGICQRIFGEKVLGLSQGSVSDMLSRPKPWSKLTQKGREPFIRMQLWLNG

Variants of: B1
Experiment: abundance fitness (aPCA) (normalised: wild type 0, dead -1); higher = more abundant; growth selection in yeast, the domain comes from the species named
Details: Homo sapiens

Row | Variant | abundance fitness
1 | QEVDTIELTRQVKEKLAKNGICQRIFGEKVLGLSQGGVSDMLSRPKPWSKLTQKGREPFIRMQLWLNG | -0.123 ± 0.051
2 | QEVDTIELTRQVKEKLAKNGICQRIFGEKVLGLSQGRVSDMLSRPKPWSKLTQKGREPFIRMQLWLNG | -0.099 ± 0.05
3 | QEVDTIELTRQVKEKLAKNGICQRIFGEKVLGLSQGWVSDMLSRPKPWSKLTQKGREPFIRMQLWLNG | -0.108 ± 0.069
4 | QEVDTIELTRQVKEKLAKNGICQRIFGEKVLGLSQGMVSDMLSRPKPWSKLTQKGREPFIRMQLWLNG | -0.126 ± 0.085
5 | QEVDTIELTRQVKEKLAKNGICQRIFGEKVLGLSQGEVSDMLSRPKPWSKLTQKGREPFIRMQLWLNG | 0.052 ± 0.1
6 | QEVDTIELTRQVKEKLAKNGICQRIFGEKVLGLSQGTVSDMLSRPKPWSKLTQKGREPFIRMQLWLNG | -0.104 ± 0.075
7 | QEVDTIELTRQVKEKLAKNGICQRIFGEKVLGLSQGVVSDMLSRPKPWSKLTQKGREPFIRMQLWLNG | -0.039 ± 0.063
8 | QEVDTIELTRQVKEKLAKNGICQRIFGEKVLGLSQGQVSDMLSRPKPWSKLTQKGREPFIRMQLWLNG | 0.111 ± 0.098
9 | QEVDTIELTRQVKEKLAKNGICQRIFGEKVLGLSQGPVSDMLSRPKPWSKLTQKGREPFIRMQLWLNG | -0.189 ± 0.073
10 | QEVDTIELTRQVKEKLAKNGICQRIFGEKVLGLSQGYVSDMLSRPKPWSKLTQKGREPFIRMQLWLNG | -0.173 ± 0.08
11 | QEVDTIELTRQVKEKLAKNGICQRIFGEKVLGLSQGFVSDMLSRPKPWSKLTQKGREPFIRMQLWLNG | -0.014 ± 0.095
12 | QEVDTIELTRQVKEKLAKNGICQRIFGEKVLGLSQGNVSDMLSRPKPWSKLTQKGREPFIRMQLWLNG | -0.033 ± 0.078
13 | QEVDTIELTRQVKEKLAKNGICQRIFGEKVLGLSQGIVSDMLSRPKPWSKLTQKGREPFIRMQLWLNG | -0.076 ± 0.089
14 | QEVDTIELTRQVKEKLAKNGICQRIFGEKVLGLSQGSVADMLSRPKPWSKLTQKGREPFIRMQLWLNG | 0.005 ± 0.056
15 | QEVDTIELTRQVKEKLAKNGICQRIFGEKVLGLSQGSVFDMLSRPKPWSKLTQKGREPFIRMQLWLNG | -0.156 ± 0.095
16 | QEVDTIELTRQVKEKLAKNGICQRIFGEKVLGLSQGSVRDMLSRPKPWSKLTQKGREPFIRMQLWLNG | 0.007 ± 0.048
17 | QEVDTIELTRQVKEKLAKNGICQRIFGEKVLGLSQGSVKDMLSRPKPWSKLTQKGREPFIRMQLWLNG | 0.039 ± 0.061
18 | QEVDTIELTRQVKEKLAKNGICQRIFGEKVLGLSQGSVEDMLSRPKPWSKLTQKGREPFIRMQLWLNG | 0.031 ± 0.07
19 | QEVDTIELTRQVKEKLAKNGICQRIFGEKVLGLSQGSVWDMLSRPKPWSKLTQKGREPFIRMQLWLNG | -0.28 ± 0.072
20 | QEVDTIELTRQVKEKLAKNGICQRIFGEKVLGLSQGSVGDMLSRPKPWSKLTQKGREPFIRMQLWLNG | 0.019 ± 0.06
21 | QEVDTIELTRQVKEKLAKNGICQRIFGEKVLGLSQGSVQDMLSRPKPWSKLTQKGREPFIRMQLWLNG | -0.007 ± 0.07
22 | QEVDTIELTRQVKEKLAKNGICQRIFGEKVLGLSQGSVMDMLSRPKPWSKLTQKGREPFIRMQLWLNG | 0.01 ± 0.052
23 | QEVDTIELTRQVKEKLAKNGICQRIFGEKVLGLSQGSVIDMLSRPKPWSKLTQKGREPFIRMQLWLNG | 0.037 ± 0.1
24 | QEVDTIELTRQVKEKLAKNGICQRIFGEKVLGLSQGSVNDMLSRPKPWSKLTQKGREPFIRMQLWLNG | 0.029 ± 0.088
25 | QEVDTIELTRQVKEKLAKNGICQRIFGEKVLGLSQGSVDDMLSRPKPWSKLTQKGREPFIRMQLWLNG | -0.04 ± 0.098
26 | QEVDTIELTRQVKEKLAKNGICQRIFGEKVLGLSQGSVYDMLSRPKPWSKLTQKGREPFIRMQLWLNG | -0.094 ± 0.11
27 | QEVDTIELTRQVKEKLAKNGICQRIFGEKVLGLSQGSVVDMLSRPKPWSKLTQKGREPFIRMQLWLNG | -0.073 ± 0.052

Row | Variant | abundance fitness
28 | QEVDTIELTRQVKEKLAKNGICQRIFGEKVLGLSQGSVTDMLSRPKPWSKLTQKGREPFIRMQLWLNG | 0.003 ± 0.059
29 | QEVDTIELTRQVKEKLAKNGICQRIFGEKVLGLSQGSVPDMLSRPKPWSKLTQKGREPFIRMQLWLNG | -0.126 ± 0.069
30 | QEVDTIELTRQVKEKLAKNGICQRIFGEKVLGLSQGSVSWMLSRPKPWSKLTQKGREPFIRMQLWLNG | -0.155 ± 0.11
31 | QEVDTIELTRQVKEKLAKNGICQRIFGEKVLGLSQGSVSIMLSRPKPWSKLTQKGREPFIRMQLWLNG | -0.349 ± 0.096
32 | QEVDTIELTRQVKEKLAKNGICQRIFGEKVLGLSQGSVSPMLSRPKPWSKLTQKGREPFIRMQLWLNG | -0.102 ± 0.071
33 | QEVDTIELTRQVKEKLAKNGICQRIFGEKVLGLSQGSVSKMLSRPKPWSKLTQKGREPFIRMQLWLNG | -0.352 ± 0.091
34 | QEVDTIELTRQVKEKLAKNGICQRIFGEKVLGLSQGSVSCMLSRPKPWSKLTQKGREPFIRMQLWLNG | -0.209 ± 0.093
35 | QEVDTIELTRQVKEKLAKNGICQRIFGEKVLGLSQGSVSRMLSRPKPWSKLTQKGREPFIRMQLWLNG | -0.514 ± 0.078
36 | QEVDTIELTRQVKEKLAKNGICQRIFGEKVLGLSQGSVSEMLSRPKPWSKLTQKGREPFIRMQLWLNG | 0.044 ± 0.065
37 | QEVDTIELTRQVKEKLAKNGICQRIFGEKVLGLSQGSVSNMLSRPKPWSKLTQKGREPFIRMQLWLNG | -0.133 ± 0.12
38 | QEVDTIELTRQVKEKLAKNGICQRIFGEKVLGLSQGSVSFMLSRPKPWSKLTQKGREPFIRMQLWLNG | -0.251 ± 0.071
39 | QEVDTIELTRQVKEKLAKNGICQRIFGEKVLGLSQGSVSTMLSRPKPWSKLTQKGREPFIRMQLWLNG | -0.121 ± 0.072
40 | QEVDTIELTRQVKEKLAKNGICQRIFGEKVLGLSQGSVSVMLSRPKPWSKLTQKGREPFIRMQLWLNG | -0.339 ± 0.053
41 | QEVDTIELTRQVKEKLAKNGICQRIFGEKVLGLSQGSVSHMLSRPKPWSKLTQKGREPFIRMQLWLNG | -0.118 ± 0.077
42 | QEVDTIELTRQVKEKLAKNGICQRIFGEKVLGLSQGSVSAMLSRPKPWSKLTQKGREPFIRMQLWLNG | -0.158 ± 0.055
43 | QEVDTIELTRQVKEKLAKNGICQRIFGEKVLGLSQGSVSYMLSRPKPWSKLTQKGREPFIRMQLWLNG | -0.212 ± 0.061
44 | QEVDTIELTRQVKEKLAKNGICQRIFGEKVLGLSQGSVSSMLSRPKPWSKLTQKGREPFIRMQLWLNG | -0.127 ± 0.052
45 | QEVDTIELTRQVKEKLAKNGICQRIFGEKVLGLSQGSVSDLLSRPKPWSKLTQKGREPFIRMQLWLNG | 0.027 ± 0.048
46 | QEVDTIELTRQVKEKLAKNGICQRIFGEKVLGLSQGSVSDNLSRPKPWSKLTQKGREPFIRMQLWLNG | -0.275 ± 0.097
47 | QEVDTIELTRQVKEKLAKNGICQRIFGEKVLGLSQGSVSDELSRPKPWSKLTQKGREPFIRMQLWLNG | -0.335 ± 0.07
48 | QEVDTIELTRQVKEKLAKNGICQRIFGEKVLGLSQGSVSDGLSRPKPWSKLTQKGREPFIRMQLWLNG | -0.239 ± 0.059
49 | QEVDTIELTRQVKEKLAKNGICQRIFGEKVLGLSQGSVSDTLSRPKPWSKLTQKGREPFIRMQLWLNG | -0.107 ± 0.066
50 | QEVDTIELTRQVKEKLAKNGICQRIFGEKVLGLSQGSVSDQLSRPKPWSKLTQKGREPFIRMQLWLNG | -0.171 ± 0.067
51 | QEVDTIELTRQVKEKLAKNGICQRIFGEKVLGLSQGSVSDILSRPKPWSKLTQKGREPFIRMQLWLNG | -0.016 ± 0.086
52 | QEVDTIELTRQVKEKLAKNGICQRIFGEKVLGLSQGSVSDCLSRPKPWSKLTQKGREPFIRMQLWLNG | 0.009 ± 0.12
53 | QEVDTIELTRQVKEKLAKNGICQRIFGEKVLGLSQGSVSDPLSRPKPWSKLTQKGREPFIRMQLWLNG | -0.289 ± 0.071
54 | QEVDTIELTRQVKEKLAKNGICQRIFGEKVLGLSQGSVSDVLSRPKPWSKLTQKGREPFIRMQLWLNG | -0.007 ± 0.045

Row | Variant | abundance fitness
55 | QEVDTIELTRQVKEKLAKNGICQRIFGEKVLGLSQGSVSDKLSRPKPWSKLTQKGREPFIRMQLWLNG | -0.089 ± 0.072
56 | QEVDTIELTRQVKEKLAKNGICQRIFGEKVLGLSQGSVSDFLSRPKPWSKLTQKGREPFIRMQLWLNG | 0.003 ± 0.12
57 | QEVDTIELTRQVKEKLAKNGICQRIFGEKVLGLSQGSVSDALSRPKPWSKLTQKGREPFIRMQLWLNG | 0.023 ± 0.053
58 | QEVDTIELTRQVKEKLAKNGICQRIFGEKVLGLSQGSVSDDLSRPKPWSKLTQKGREPFIRMQLWLNG | -0.194 ± 0.1
59 | QEVDTIELTRQVKEKLAKNGICQRIFGEKVLGLSQGSVSDSLSRPKPWSKLTQKGREPFIRMQLWLNG | -0.263 ± 0.062
60 | QEVDTIELTRQVKEKLAKNGICQRIFGEKVLGLSQGSVSDHLSRPKPWSKLTQKGREPFIRMQLWLNG | -0.291 ± 0.14
61 | QEVDTIELTRQVKEKLAKNGICQRIFGEKVLGLSQGSYSDMLSRPKPWSKLTQKGREPFIRMQLWLNG | 0.027 ± 0.11
62 | QEVDTIELTRQVKEKLAKNGICQRIFGEKVLGLSQGSMSDMLSRPKPWSKLTQKGREPFIRMQLWLNG | -0.147 ± 0.084
63 | QEVDTIELTRQVKEKLAKNGICQRIFGEKVLGLSQGSWSDMLSRPKPWSKLTQKGREPFIRMQLWLNG | 0.063 ± 0.073
64 | QEVDTIELTRQVKEKLAKNGICQRIFGEKVLGLSQGSKSDMLSRPKPWSKLTQKGREPFIRMQLWLNG | -0.161 ± 0.083
65 | QEVDTIELTRQVKEKLAKNGICQRIFGEKVLGLSQGSTSDMLSRPKPWSKLTQKGREPFIRMQLWLNG | 0.164 ± 0.08
66 | QEVDTIELTRQVKEKLAKNGICQRIFGEKVLGLSQGSGSDMLSRPKPWSKLTQKGREPFIRMQLWLNG | -0.263 ± 0.05
67 | QEVDTIELTRQVKEKLAKNGICQRIFGEKVLGLSQGSISDMLSRPKPWSKLTQKGREPFIRMQLWLNG | -0.022 ± 0.12
68 | QEVDTIELTRQVKEKLAKNGICQRIFGEKVLGLSQGSLSDMLSRPKPWSKLTQKGREPFIRMQLWLNG | -0.026 ± 0.057
69 | QEVDTIELTRQVKEKLAKNGICQRIFGEKVLGLSQGSCSDMLSRPKPWSKLTQKGREPFIRMQLWLNG | -0.096 ± 0.08
70 | QEVDTIELTRQVKEKLAKNGICQRIFGEKVLGLSQGSRSDMLSRPKPWSKLTQKGREPFIRMQLWLNG | -0.22 ± 0.044
71 | QEVDTIELTRQVKEKLAKNGICQRIFGEKVLGLSQGSDSDMLSRPKPWSKLTQKGREPFIRMQLWLNG | -0.188 ± 0.088
72 | QEVDTIELTRQVKEKLAKNGICQRIFGEKVLGLSQGSSSDMLSRPKPWSKLTQKGREPFIRMQLWLNG | -0.086 ± 0.059
73 | QEVDTIELTRQVKEKLAKNGICQRIFGEKVLGLSQGSPSDMLSRPKPWSKLTQKGREPFIRMQLWLNG | -0.364 ± 0.08
74 | QEVDTIELTRQVKEKLAKNGICQRIFGEKVLGLSQGSHSDMLSRPKPWSKLTQKGREPFIRMQLWLNG | -0.308 ± 0.11
75 | QEVDTIELTRQVKEKLAKNGICQRIFGEKVLGLSQGSQSDMLSRPKPWSKLTQKGREPFIRMQLWLNG | -0.273 ± 0.086
76 | QEVDTIELTRQVKEKLAKNGICQRIFGEKVLGLSQGSFSDMLSRPKPWSKLTQKGREPFIRMQLWLNG | 0.048 ± 0.13
77 | QEVDTIELTRQVKEKLAKNGICQRIFGEKVLGLSQGSNSDMLSRPKPWSKLTQKGREPFIRMQLWLNG | -0.331 ± 0.088
78 | QEVDTIELTRQVKEKLAKNGICQRIFGEKVLGLSQGSESDMLSRPKPWSKLTQKGREPFIRMQLWLNG | -0.282 ± 0.063
79 | QEVDTIELTRQVKEKLAKNGICQRIFGEKVLGLSQGSASDMLSRPKPWSKLTQKGREPFIRMQLWLNG | -0.215 ± 0.075
